In paper PMC5339894, “G196 epitope tag system: a novel monoclonal antibody, G196, recognizes the small, soluble peptide DLVPR with high affinity” (Scientific Reports, 2017):
Where no end group is shown, it is not given here.

Assays:
[1] = system: anti-FLAG M2 mAb affinity column; details: mild pH (pH 3.5–4.4); cited from earlier work
From the text: Previously, we studied the subcellular localization of myocardin-related transcription factor (MRTF)-B, a shuttle protein between the nucleus and cytoplasm that is expressed in response to various stimuli.

mAb G196 = assay: Western blot epitope mapping of bacterially expressed GST proteins with mAb G196; format: binding, mouse; details: purified or bacterially expressed GST proteins, SDS-PAGE, denaturing conditions
Procedure: To confirm that the G196 epitope is located on the C-terminal extension of the 4T-2 fragment, and to further determine the precise location of the G196 mAb epitope, double-stranded oligonucleotides encoding peptides containing the C-terminal extension were inserted into the BamHI/EcoRI restriction sites within the pGEX-6P-1 vector. Total protein lysates were prepared from Escherichia coli that had been transformed with individual GST fusion protein constructs.
All short 4T-2 fragments were generated by annealing complementary oligos. The oligos used to synthesize the indicated fragments are summarized (Fasmac, Kanagawa, Japan) in Supplementary Table 2. Annealing reaction mixtures contained equimolar amounts of each oligo and the reactions were performed in a thermal cycler, with initial denaturation at 98 °C for 3 min, followed by a temperature decrease of 2 °C every 20 s down to 4 °C to allow the oligos to anneal slowly. The oligos contained the BamHI/EcoRI restriction sites and the 4T-2 fragments were cloned into these restriction sites within the pGEX-6P-1 vector (GE Healthcare, Buckinghamshire, England).
A fragment of the GST gene, encoding residues 2–212, was prepared by polymerase chain reaction (PCR) amplification using the Pfu polymerase (BioAcademia) and the pGEX-6P-1 plasmid as the template. […]

[2] = biological target: T1, synthetic peptide GSDLVPRGS (synthetic); assay: ITC; VP-ITC, 25 C; cell: 25 uM G196 Fab in 20 mM Tris-HCl (pH 8.0), 150 mM NaCl; peptide (500 uM) injected; single-site model; details: both partners purified
T1 construct: source: synthetic peptide (Tufts University Core Facility)
T1 chain: GSDLVPRGS

N=C(N)NCCC[C@H](N)C(=O)O [Arg]
dissociation of FLAG-tagged proteins from column [1]: effectively dissociate FLAG-tagged proteins

6P-12: GST fusion protein with C-terminal extension fragment inserted in pGEX-6P-1 ({GST}-SDLVPRGSP)
recognition by mAb G196 in Western blot (mAb G196): detected

B1: G196 antigen binding fragment (Fab) (Fab, V domains shown)
VH: QVKLQESGAELVKPGASVKLSCKASGYTFTNYWMHWVKLRPGQGFEWIGEINPSNGGSNYNEKFKRKATLTVDKSSSTAYMQLSSLTSEDSAVFYCSIWDSYFDYWGQGTTLTVSS
VL: NIVMTQSPKSMSMSVGERVTLTCKASENVVTYVSWYQQKPEQSPKLLIYGASNRYTGVPDRFTGSGSATDFTLTISSVQAEDLADYHCGQGYSYPYTFGGGTKLEIK
notes: Fab part of the heavy chain of m1; chain in PDB 5H2B; as the light chain of m1; also called G196 Fab; G196 IgG Fab; source: purified mAb G196 IgG fragmented using papain, Fab purified by protein A chromatography
Kd [2]: 1.25 ± 0.77 nM
dH [2]: -64.2 kJ/mol
stoichiometry N [2]: 1.2 ± 0.05
